Results: paper PMC6200392

How the values were obtained:
[1] = target: PRC1 (unlabeled, full-length) (human) (UniProt O43663)
[2] = target: PRC1 N-terminus (Homo sapiens) (UniProt O43663); details: cited from earlier work

Row | Substance | relative sliding of PRC1-crosslinked antiparallel microtubules, average phase-1 sliding velocity; 0.2 and 1 nM PRC1 at 6 nM Kif4A-GFP [1] [×10⁻⁶ cm/s] | Kd [2] [µM]
1 | Kif4A-GFP (from UniProt O95239 1-1232) (natural protein) | 4.6 | –
2 | Kif4A C-terminus (from UniProt O95239) | – | 0.3
